Columns and labels:
[1] = target: recombinant human PDGF-BB (human) (UniProt P01127); assay: optical biosensor (Proteon XPR36 / Biacore 2000), binder amine-coupled, rhPDGF-BB injected, 25 C
[2] = target: recombinant human PDGF-BB (human) (UniProt P01127); assay: competitive ELISA: binder preincubated with 0.2 nM rhPDGF-BB, competitor immobilized PDGFR/Fc
[3] = target: recombinant human PDGF-BB (human) (UniProt P01127); assay: cell-based or functional assay

Chain of recombinant human PDGF-BB (human) (P01127 82-190): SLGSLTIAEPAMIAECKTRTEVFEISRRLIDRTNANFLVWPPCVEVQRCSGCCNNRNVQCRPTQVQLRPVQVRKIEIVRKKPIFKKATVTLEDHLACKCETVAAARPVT

Kd [1]: 0.107 nM | IC50 [2]: 0.066 nM | Inhibition of PDGF induced proliferation of HPVPs, IC50 [3]: 5.4 nM
Substance: reference anti-PDGF-BB antibody (R&D Systems, Catalog # AB-220-NA)

Source: patent US20180244762A1
